Test results as given in patent US9809653B2, “Anti-LAMP1 antibodies and antibody drug conjugates, and uses thereof” (SANOFI, priority 2012, dated 2017).

Legend:
Assay type in all cases: binding
[1] = system: cynomolgus monkey LAMP1 protein (SEQ ID NO: 29); assay: ELISA on cynomolgus monkey LAMP1; settings: FIG. 3
Procedure: Extracellular domain of LAMP1 of human (Ala29-Met382 of SEQ ID NO: 24) and cynomolgus monkey LAMP1 (Ala27-Met380 of SEQ ID NO: 39) were prepared as described in example 6.2. […] The antibody binding was visualized by adding TMB-H2O2 buffer and read at a wavelength of 450 nm.
Antibody MAb4 was assessed for its ability to bind primate LAMP1 protein by enzyme-linked immunosorbent assay (ELISA) assay as described in example 4.7 and EC50 values determined as described in example 6.2.

[2] = system: cynomolgus monkey LAMP1 expressed transiently at the cell surface of HEK293; assay: FACS on HEK293 cells transiently transfected with cynomolgus LAMP1; settings: transient HEK293
Description: (§1) LAMP1 Coding DNA Sequence, RefSeq NM_005561.3 (SEQ ID NO: 23) was cloned internally. The CDS of Macaca mulatta LAMP1, RefSeq XP_001087801 (SEQ ID NO: 27) was also cloned internally. The predicted sequences of mature LAMP1 from Macaca mulatta and Macaca fascicularis are identical to 99%, said sequence differing by one additional Leucin at position 11 of Macaca mulatta (SEQ ID NO: 27), i.e. in the signal peptide. The mature LAMP1 proteins of Macaca mulatta and Macaca fascicularis are identical. Therefore the secreted LAMP1 used in the following example is referred to cynomolgus monkey. Both CDS were cloned into mammalian expression plasmids under CMV enhancer/promoter and SV40 polyA signals. HEK293 cells (Invitrogen; #K9000-10.) were transiently transfected with human LAMP1 or cynomolgus LAMP1 plasmids using FreeStyle™ MAX 293 Expression System according to the manufacturer's instructions. […] 100 μL/well of goat anti-mouse IgG conjugated with Alexa647 (Invitrogen; #A2135) was added for 45 min at 4° C. and washed three times with PBS 1% BSA. The antibody binding was evaluated after centrifugation and resuspension of cells by adding 200 μl/well PBS 1% BSA and read using Guava® easyCyte™ 8HT Flow Cytometry System. EC50 values were estimated using BIOST@T-SPEED software.

[3] = target: T1, human LAMP1 expressed transiently at the cell surface of HEK293 (Homo sapiens, UniProt P11279); assay: FACS on HEK293 cells transiently transfected with human LAMP1; settings: transient HEK293
T1 construct: expressed in transfected cells; host or cells: HEK293 (Invitrogen K9000-10), transient transfection
T1 sequence (P11279 29-417): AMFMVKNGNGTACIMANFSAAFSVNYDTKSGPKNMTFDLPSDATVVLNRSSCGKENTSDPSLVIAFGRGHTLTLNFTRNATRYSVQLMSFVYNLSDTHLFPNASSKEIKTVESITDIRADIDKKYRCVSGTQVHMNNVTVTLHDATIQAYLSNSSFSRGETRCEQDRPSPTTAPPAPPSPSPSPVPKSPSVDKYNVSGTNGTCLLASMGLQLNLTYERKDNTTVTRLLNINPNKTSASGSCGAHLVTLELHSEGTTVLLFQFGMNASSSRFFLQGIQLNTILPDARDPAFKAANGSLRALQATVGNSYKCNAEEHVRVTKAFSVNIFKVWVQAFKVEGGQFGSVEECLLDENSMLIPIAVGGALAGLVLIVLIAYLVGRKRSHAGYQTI
Description: as §1

Chain of cynomolgus monkey LAMP1 protein (SEQ ID NO: 29) (as listed by the source): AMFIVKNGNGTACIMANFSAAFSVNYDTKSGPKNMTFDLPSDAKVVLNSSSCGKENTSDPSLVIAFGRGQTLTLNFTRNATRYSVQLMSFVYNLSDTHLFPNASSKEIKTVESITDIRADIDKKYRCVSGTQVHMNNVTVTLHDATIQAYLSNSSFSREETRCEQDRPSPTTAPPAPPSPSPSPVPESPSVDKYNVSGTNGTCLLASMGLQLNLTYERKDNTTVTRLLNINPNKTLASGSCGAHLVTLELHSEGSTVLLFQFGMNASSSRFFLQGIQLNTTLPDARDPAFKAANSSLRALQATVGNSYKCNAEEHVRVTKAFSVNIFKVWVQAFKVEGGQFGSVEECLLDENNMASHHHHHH
Chain of cynomolgus monkey LAMP1 expressed transiently at the cell surface of HEK293 (as listed by the source): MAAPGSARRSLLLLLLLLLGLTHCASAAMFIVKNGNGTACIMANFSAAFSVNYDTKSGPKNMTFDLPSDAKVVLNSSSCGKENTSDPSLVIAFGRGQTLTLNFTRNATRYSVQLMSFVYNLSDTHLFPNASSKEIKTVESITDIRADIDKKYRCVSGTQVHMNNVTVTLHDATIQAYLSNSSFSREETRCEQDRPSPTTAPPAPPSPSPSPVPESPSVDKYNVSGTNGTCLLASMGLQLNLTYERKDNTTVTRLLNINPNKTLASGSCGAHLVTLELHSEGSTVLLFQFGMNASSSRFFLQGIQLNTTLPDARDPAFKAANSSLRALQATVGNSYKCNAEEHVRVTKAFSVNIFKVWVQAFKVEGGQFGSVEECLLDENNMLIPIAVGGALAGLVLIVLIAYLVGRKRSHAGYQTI

B1: MAb1: murine monoclonal anti-LAMP1 antibody, VH SEQ ID NO: 1, VL SEQ ID NO: 5 (antibody, V domains shown)
VH: QVQLQQSGAELVKPGASVKMSCKASGYIFTNYNIHWVKKSPGQGLEWIGAIYPGNGDAPYSQKFKDKATLTADKSSSTTYMQLSRLTSEDSAVYYCVRANWDVAFAYWGQGTLVSVSA
VL: DIQMTQSPPSLSASLGGKVTITCKASQDIDRYMAWYQDKPGKGPRLLIHDTSTLQPGIPSRFSGSGSGRDYSFSISNLEPEDIATYYCLQYDNLWTFGGGTKLEIK
modifications: Antibody Fragment; antibody fragment
- Binding affinity, cynomolgus monkey LAMP1 versus human LAMP1 [1]: in the same range
- EC50 [2]: 44 nM
- EC50 [3]: 14 nM
